Experimental findings from patent publication US20180009877A1 (ACADEMIA SINICA, published 2018) are described below.

In test [1] the target is T1, polypeptide HER2/ECD (human, UniProt P04626 23-646). Briefly: ELISA, IgG on immobilized HER2/ECD.
Method: The EC₅₀ of antibody was determined by titrating the antibody on immobilized HER2/ECD with ELISA. Briefly, NUNC 96-well Maxisorb immunoplates were coated with HER2/ECD peptides (0.2 μg per well) in PBS buffer (pH 7.4) via overnight incubation at 4° C., the plates were then blocked with 5% skim milk in PBST [0.05% (v/v) Tween 20] for 1 h. In the meantime, twofold serial dilutions of the antibody in PBST with 5% milk were performed and 11 different concentrations of the antibody were generated. After blocking, 100 μL diluted antibody samples were added to each well, and incubated for 1 h under gentle shaking. The plate was washed 6 times with 300 μL PBST and then added with 100 μL 1:2000-diluted horse-radish peroxidase/anti-human IgG antibody conjugate in PBST with 5% milk for 1 h incubation. The plates were washed 6 times with PBST buffer and twice with PBS, developed for 3 min with 3,3′,5,5′-tetramethyl-benzidine peroxidase substrate (Kirkegaard & Perry Laboratories), quenched with 1.0 M HCl and read spectrophotometrically at 450 nm.
Test [2] deals with T1, polypeptide HER2/ECD. Briefly: SPR (BIAcore), HER2/ECD immobilized, IgG in flow. (In general: Surface plasmon resonance follows binding to a sensor surface in real time, without labels.)
Method: BIAcore T200 (GE Healthcare) instrument was used to determine the binding affinities and kinetic parameters for interactions between antibody and antigen HER2/ECD. HER2/ECD in 10 mM acetate buffer (pH 5.0) was immobilized on a CM5 sensor chip to a response unit (RU) of 1000 with an amine coupling kit. Association (kₒₙ) and dissociation (koff) constants of the interactions between IgGs and HER2/ECD were measured in PBST running buffer (0.05% Tween 20) with a flow rate of 30 μL/min. […] Binding kinetics was determined by global fitting to 1:1 binding model using the Biaevaluation software (GE Healthcare).

B1: M64 (antibody)
chain: MAELDIQMNQSHKFMSTSVGDRVSITCKASQDVSTAVAWYQQKPGQSPKLLIYWASTRHTGVPGRFTGSGSGADYTLTISSVQAEDLALYYCQQHYSTPYTFGGGTKLEIKSSGGGGSGGGGGGSSRSSLEVQLQQSGAELVKPGASVKLSCTASGFNIKNTYMHWVKQRPEQGLEWIGRIDPANGNTKYDPKLQGKATITADTSSNTAYLHLSSLTSEDTAVYYCVPYYRGAMDYWGQGTSVTVSSESQSFPNVTSAAAGAPVPYPDPLEPRAA
As a reminder, the EC50 is the concentration that produces a half-maximal response. Low readings indicate higher potency in that assay, high ones lower potency in that assay. As usually defined, the Kd is the free concentration of one partner at which half of the binding sites on the other are occupied at equilibrium, for simple one-to-one binding. Broadly, the koff is the first-order rate constant of dissociation. Low readings indicate slow dissociation, high ones fast dissociation. For orientation: kon means the second-order rate constant of association. Low values mean slower complex formation, high ones faster complex formation. The molecule B1 showed an EC50 in test [1] of 3.1 ng/mL. Also, in test [2], binding was characterised by a dissociation constant (Kd) of 0.195 nM, the koff turned out to be 0.000337 s⁻¹ and the kon worked out at 1.74e+06 M⁻¹ s⁻¹.

B2: M41 (antibody)
chain: MAELDIQMTQTTSSLSASLGDRVTISCRTSQDISNYLNWYQQKPNGTIKLLIYYTSGLYSGVPSRFSGSGSGADYSLTISNVEQEDIATYFCQQVNTLPYTFGGGTKLELKSSGGGGSGGGGGGSSRSSFEVQLQQSGAELVKPGASVKMSCKAFGYTFTTYPIEWMKQNHGKSLEWIGNFHPYNDYTNYNEKFKGKAKLTVEKSSTTVYLELSRLTSDDSAVYYCARRHDGYYGAMDYWGQGTSVTVSSAKTTAPSVTSAAAGAPVPYPDPLEPRAA
notes: also called antibody M41
B2 registered an EC50 in test [1] of 3.4 ng/mL. Also, in test [2], the dissociation constant (Kd) was 0.0519 nM, the koff came out at 3.48e-05 s⁻¹ and the kon worked out at 671000 M⁻¹ s⁻¹.

B3: M63 (antibody)
chain: MAELDAVVTQESALTTSPGETVTLTCRSSTGTVTTSNYANWVQEKPDHLFTGLIGGTKNRAPGVPARFSGSLIGDKAALTITGAQTEDEAIYFCALWYSNHWVFGGGTKLTVLGSSGGGGSGGGGGGSSRSSLEVQLQQSGPELVRPGDSVKISCKASGYTFSDYAVHWVKRSHGKSLEWIGVISIYYDNINYNQNFKGKATMTVDKSSSTAYLELARLTSEDSAIYYCARRGFDYWGPGTTLTVSSAKTTAPSVTSAAA
In test [1], B3 returned a 50% effective concentration (EC50) of 2.4 ng/mL. This molecule registered a koff in test [2] of 7.34e-05 s⁻¹.

B4: H32 (antibody)
chain: DIQMTQSPSSLSASVGDRVTITCKASQNVGTAVAWYQQKPGKAPKLLIYSASNRYTGVPSRFSGSGSGTDFTLTISSLQPEDFATYYCQQYSSYPLAFGQGTKVEIKRGGGGSIEGRSGGGGSEVQLVESGGGLVQPGGSLRLSCKASGFNIKDYFMYWVRQAPGKGLEWVGWIDPENGNTIYDPKFQGRFTISADTSKNTAYLQMNSLRAEDTAVYYCTRGYYGSRVLAMDYWGQGTLVTVSSASAAA
notes: also called antibody H32
As to B4, it took 3.2 ng/mL to reach a half-maximal effect in test [1] (EC50). Besides, in test [2], binding was characterised by a dissociation constant (Kd) of 0.242 nM, the off-rate constant (koff) amounted to 3.85e-05 s⁻¹ and the on-rate constant (kon) is 159000 M⁻¹ s⁻¹.

B5: M61 (antibody)
chain: MAELDIKITQSPASLSASVGETVTITCRASENIYSYLAWYQQKQGKSPQLLVYNAKTLAEGVPSRFSGSGSGTQFSLKINSLQPEDFGSYYCQHHYGTPYTFGGGTKLELKSSGGGGSGGGGGGSSRSSLEVQLQQSGAELVKPGASVKMSCKAFGYTFTTYPIEWMKQNHGKSLEWIGNFHPYNDDTKYNEKFKGKAKLTVEKSSSTVYLELSRLTSDDSAVYYCARRNDGYYGAMDYWGQGTSVTVSSAKTTAPSVTSAAAGAPVPYPDPLEPRAA
B5 had an EC50 in test [1] of 3.5 ng/mL. In test [2], this molecule displayed a Kd of 0.591 nM, a koff of 0.0024 s⁻¹ and an on-rate (kon) of 4.06e+06 M⁻¹ s⁻¹.

B6: M62 (antibody)
chain: MAELDIQMIQSQKFMSTSVGDRVSVTCKASQNVGTNVAWYQQKPGQSPKALIHSASYRYSGVPDRFTGSGSGTDFTLTISNVQSEDLAEYFCQQYNSYPLTFGAGTKLEIKSSGGGGSGGGGGGSSRSSLEVQLQQSGTELARPGASVKLSCKASGYTFIDYYITWVKQRTGQGLEWIGEIYPGGGNPYYNDNFKGKASLTADKSSNTVYMQLSSLTSEDSAVYFCARSYKYDVSVYWGQGTLVTVSAAKTTPPSVTSAAAGAPVPYPDPLEPRAA
notes: also called antibody M62
B6 displayed an EC50 in test [1] of 2 ng/mL. In addition, in test [2], the Kd turned out to be 0.0228 nM, the koff is 1.8e-05 s⁻¹ and the kon amounted to 788000 M⁻¹ s⁻¹.

B7: M32 (antibody)
chain: MAELGIELTQSQKFMSTSVGDRVSITCKASQNVGTAVAWYQQKPGQSPKLLIYSASNRYTGVPDRFTGSGSGTDFTLTISNMQSEDLADYFCQQYSSYPLAFGGGTKLEIKSSGGGGSGGGGGGSSRSSLEVQLVESGAELVRPGALVKLSCKASGFNIKDYFMYWVKQRPEQGLEWVGWIDPENGNTIYDPKFQGKASITADTSSNTAYLQLSSLTSEDTAVYYCTRGYYGSRVLAMDYWGQGTSVTVSSAKTTPPSVTSAAA
notes: also called antibody M32
In the case of B7, the EC50 in test [1] amounted to 3.1 ng/mL. For the same molecule, in test [2], binding was characterised by a dissociation constant (Kd) of 0.243 nM, the koff came out at 7.15e-05 s⁻¹ and the on-rate (kon) turned out to be 294000 M⁻¹ s⁻¹.
